{"source": "paper PMC8316464", "about": "“Structures of the ApoL1 and ApoL2 N-terminal domains reveal a non-classical four-helix bundle motif” (Communications Biology, 2021)", "key": {"ApoL3-Myc-Flag": {"molecular_target": "T1, ApoL3-Myc-Flag (Homo sapiens, UniProt O95236)", "T1 construct": "Apolipoprotein L3, human; The homology model (not this construct) used isoform 1, NP_663615.1; source: COS7, transiently transfected; in lysate (immunoprecipitation) or in fixed, permeabilized cells (immunofluorescence); not shown: Myc, C-terminal, kept; FLAG, C-terminal, kept", "T1 sequence (O95236 whole entry, canonical isoform)": "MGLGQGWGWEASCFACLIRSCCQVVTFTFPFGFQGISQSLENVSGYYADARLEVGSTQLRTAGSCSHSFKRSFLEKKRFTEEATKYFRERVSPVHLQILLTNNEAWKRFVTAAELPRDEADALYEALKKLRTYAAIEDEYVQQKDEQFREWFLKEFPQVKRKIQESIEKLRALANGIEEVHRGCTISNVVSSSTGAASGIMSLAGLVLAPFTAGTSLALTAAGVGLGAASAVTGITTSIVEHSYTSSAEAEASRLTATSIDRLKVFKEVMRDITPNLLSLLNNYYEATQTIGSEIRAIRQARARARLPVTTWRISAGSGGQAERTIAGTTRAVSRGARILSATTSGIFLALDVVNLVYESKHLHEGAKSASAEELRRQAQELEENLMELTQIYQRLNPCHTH", "experiment": "immunoprecipitation; 20 µg antibody pre-immobilised on Dynabeads Protein G, incubated 20 min at RT with M-PER lysates of cells expressing ApoL1-6 (35 µg total protein for ApoL1-3, 500 µg for ApoL4-6); four washes PBS/0.02% Tween-20; blot with anti-ApoL1/2 or anti-Myc", "conditions": "one partner purified"}, "[1]": {"molecular_target": "T2, human untagged ApoL2 expressed in COS7 cells (Homo sapiens, UniProt Q9BQE5)", "T2 construct": "Apolipoprotein L2, human, untagged; source: COS7, transiently transfected; in lysate (immunoprecipitation) or in fixed, permeabilized cells (immunofluorescence)", "T2 sequence (Q9BQE5 whole entry)": "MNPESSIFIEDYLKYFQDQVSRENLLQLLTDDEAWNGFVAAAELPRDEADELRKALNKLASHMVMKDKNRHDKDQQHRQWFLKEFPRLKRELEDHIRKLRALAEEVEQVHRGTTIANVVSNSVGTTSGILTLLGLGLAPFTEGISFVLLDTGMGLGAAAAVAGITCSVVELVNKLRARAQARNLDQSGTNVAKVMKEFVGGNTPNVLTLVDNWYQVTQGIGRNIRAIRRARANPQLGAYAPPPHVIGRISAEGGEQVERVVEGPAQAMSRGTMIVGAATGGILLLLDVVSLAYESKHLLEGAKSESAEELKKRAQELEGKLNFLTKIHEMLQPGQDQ", "experiment": "immunoprecipitation; 20 µg antibody pre-immobilised on Dynabeads Protein G, incubated 20 min at RT with M-PER lysates of cells expressing ApoL1-6 (35 µg total protein for ApoL1-3, 500 µg for ApoL4-6); four washes PBS/0.02% Tween-20; blot with anti-ApoL1/2 or anti-Myc", "conditions": "one partner purified"}, "ApoL4-Myc": {"molecular_target": "T3, ApoL4-Myc (Homo sapiens, UniProt Q9BPW4)", "T3 construct": "Apolipoprotein L4, human; The homology model (not this construct) used isoform 2, NP_663693; source: COS7, transiently transfected; in lysate (immunoprecipitation) or in fixed, permeabilized cells (immunofluorescence); not shown: Myc, C-terminal, kept", "T3 sequence (Q9BPW4 22-351)": "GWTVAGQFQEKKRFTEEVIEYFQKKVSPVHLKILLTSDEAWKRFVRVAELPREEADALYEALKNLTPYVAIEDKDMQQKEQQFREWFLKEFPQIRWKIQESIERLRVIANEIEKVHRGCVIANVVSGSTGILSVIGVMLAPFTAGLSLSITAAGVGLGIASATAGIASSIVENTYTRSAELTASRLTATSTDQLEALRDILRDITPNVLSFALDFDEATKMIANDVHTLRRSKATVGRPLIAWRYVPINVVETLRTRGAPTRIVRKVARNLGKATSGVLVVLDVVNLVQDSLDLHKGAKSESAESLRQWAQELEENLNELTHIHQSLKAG", "experiment": "immunostaining of cells or tissue; transiently transfected COS7 cells fixed (3% paraformaldehyde) and permeabilized (0.1% Triton-X-100); mouse anti-ApoL1 antibodies at 2 µg/ml in PBS, 1 h, room temperature; Alexa488-anti-mouse; co-stained with anti-myc", "conditions": "one partner purified"}, "[2]": {"molecular_target": "T4, full-length ApoL1 with N-terminal flag-tag (human, UniProt O14791-1)", "T4 construct": "also called Apolipoprotein L1; not shown: FLAG, N-terminal, kept", "T4 sequence (O14791 28-398)": "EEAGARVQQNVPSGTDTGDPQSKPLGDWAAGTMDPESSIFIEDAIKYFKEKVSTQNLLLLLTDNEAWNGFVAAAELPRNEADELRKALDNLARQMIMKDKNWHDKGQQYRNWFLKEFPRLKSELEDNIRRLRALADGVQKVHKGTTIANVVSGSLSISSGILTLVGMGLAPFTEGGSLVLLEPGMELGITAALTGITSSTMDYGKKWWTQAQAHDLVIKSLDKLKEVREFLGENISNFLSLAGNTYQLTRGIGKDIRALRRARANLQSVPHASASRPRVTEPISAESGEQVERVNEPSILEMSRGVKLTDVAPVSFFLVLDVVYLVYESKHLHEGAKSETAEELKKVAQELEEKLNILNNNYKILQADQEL", "experiment": "SPR; Biacore T200; anti-ApoL1 antibodies captured (~250 RU) by anti-murine Fc antibody on a CM5 chip; ApoL1 0.8–500 nM injected in HBS-P (10 mM HEPES pH 7.4, 150 mM NaCl, 0.005% P20) at 37 °C, 100 µl/min; 1:1 Langmuir model; KD = koff/kon", "conditions": "both partners purified"}, "[3]": {"molecular_target": "T5, flag-tagged ApoL1-NTD (D61–T172) (human, UniProt O14791)", "T5 construct": "Apolipoprotein L1, human, N-terminal domain residues D61-T172; E150 variant; the tag is said to be removed only for X-ray studies; source: Sf9 insect cells (baculovirus), purified (anti-flag resin, S75 size exclusion)", "T5 sequence (O14791 61-172)": "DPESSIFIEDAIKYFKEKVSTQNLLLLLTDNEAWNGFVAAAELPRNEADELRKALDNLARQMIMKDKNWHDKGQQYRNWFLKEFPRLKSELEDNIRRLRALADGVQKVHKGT", "experiment": "SEC-MALS; XBridge BEH 200 Å column in PBS, 0.02% sodium azide, 1 ml/min; complex formed with a twofold molar excess of ApoL1-NTD (46.8 µM) over Fab7D6, 30 min at room temperature; components also run alone", "conditions": "both partners purified"}, "[4]": {"molecular_target": "T6, ApoL1-peptide (BH3-like peptide E152–H169) (human, UniProt O14791)", "T6 construct": "Apolipoprotein L1, human, residues E152-H169; also called ApoL1-BH3 peptide; BH3 peptide; source: synthetic peptide (NEO Scientific)", "T6 chain": "EDNIRRLRALADGVQKVH", "experiment": "crystal structure; Fab complexes formed with 1.5 molar excess of NTD and purified on Superdex-200 in 0.15 M NaCl, 25 mM Tris pH 8.0, about 10 mg/ml; Fab7D6 also crystallised with the synthetic peptide E152–H169", "conditions": "both partners purified"}, "[5]": {"molecular_target": "T7, ApoL2-NTD (N2-T113), His tag removed (human, UniProt Q9BQE5)", "T7 construct": "Apolipoprotein L2, human, N-terminal domain residues N2-T113, Genbank NP_112092.2; source: Sf9 insect cells (baculovirus), purified (Ni resin, S75, TEV digestion, S75)", "T7 sequence (Q9BQE5 other isoform, or with tags, fused parts or gaps)": "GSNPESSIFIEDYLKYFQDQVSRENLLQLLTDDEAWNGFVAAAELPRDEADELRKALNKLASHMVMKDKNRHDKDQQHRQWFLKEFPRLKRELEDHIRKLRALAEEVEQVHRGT", "experiment": "crystal structure; Fab complexes formed with 1.5 molar excess of NTD and purified on Superdex-200 in 0.15 M NaCl, 25 mM Tris pH 8.0, about 10 mg/ml; Fab7D6 also crystallised with the synthetic peptide E152–H169", "conditions": "both partners purified"}, "Bcl-w": {"molecular_target": "T8, Bcl-w (human, UniProt Q92843 1-193)", "T8 construct": "Bcl-w, human recombinant; source: bought: R&D Systems", "T8 sequence (looked up)": "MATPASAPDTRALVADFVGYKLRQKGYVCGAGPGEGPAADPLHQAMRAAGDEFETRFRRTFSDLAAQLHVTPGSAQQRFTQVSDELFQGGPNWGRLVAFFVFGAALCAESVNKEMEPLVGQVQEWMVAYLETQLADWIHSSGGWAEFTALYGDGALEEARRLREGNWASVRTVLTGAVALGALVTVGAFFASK", "experiment": "SPR; Biacore S200; Bcl-2 family proteins immobilised on CM5 (amine coupling or His-Capture Kit); peptides and flag-tagged proteins as analytes, single-cycle kinetics, HBS-EP, 25 °C; 1:1 Langmuir model; absence of binding probed at 100 nM and 3 µM", "conditions": "both partners purified"}, "Bfl-1": {"molecular_target": "T9, Bfl-1 (human, UniProt Q16548 1-175)", "T9 construct": "Bfl-1 (Bcl-2-related protein A1), human recombinant; also called Bcl-2-related protein A1; source: bought: R&D Systems", "T9 sequence (looked up)": "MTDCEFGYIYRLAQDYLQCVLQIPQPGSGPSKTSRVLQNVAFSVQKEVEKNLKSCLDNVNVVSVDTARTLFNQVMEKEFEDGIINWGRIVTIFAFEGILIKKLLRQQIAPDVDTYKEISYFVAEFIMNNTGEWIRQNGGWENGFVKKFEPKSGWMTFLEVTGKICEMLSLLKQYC", "experiment": "SPR; Biacore S200; Bcl-2 family proteins immobilised on CM5 (amine coupling or His-Capture Kit); peptides and flag-tagged proteins as analytes, single-cycle kinetics, HBS-EP, 25 °C; 1:1 Langmuir model; absence of binding probed at 100 nM and 3 µM", "conditions": "both partners purified"}}}
{"binder": "Ab6D12 (antibody, V domains shown, mouse VH, as the variable part of the heavy chain of m1; mouse heavy chain constant region; mouse VL, as the variable part of the light chain of m1; mouse light chain constant region; Mouse anti-human ApoL1 antibody; also called 3.6D12; murine Ab6D12) VH: EVMLVESGGGLVRPGGSLKLSCTASGFTFSRCAMSWVRQTPEKRLEWVSAISRDSTYTYYSDSVKGRFTVSRDNAKNTLYLQMSSLRSEDTAMYYCARQIDDYYVDALDYWGQGTSVTVSS VL: DVQITQSPSYLAASPGETITINCRASKIISKYLAWYQEKPGKTIKLLIYSGFTLQSGIPSRFSGSGSGTDFTLTISSLEPEDFAMYYCQQHNEYPLTFGAGTKLEIK", "values": [{"measurement": "binding result", "setting": "ApoL3-Myc-Flag", "result": "binds"}, {"measurement": "binding result", "setting": "[1]", "result": "binds"}, {"measurement": "binding result", "setting": "ApoL4-Myc", "result": "binds"}, {"measurement": "Kd", "setting": "[2]", "result": 0.86, "unit": "nM"}]}
{"binder": "Fab7D6 (Fab, V domains shown, Chimeric Fab: mouse variable domains on human constant domains; also called Fab of Ab7D6; 3.7D6 Fab; source: E. coli strain 64B4, secreted into the periplasm, purified (protein G, SP Sepharose, Superdex 75)) VH: QIQLVQSGPDLKKPGETVKISCRTSGYAFTNYGVNWVKQAPGKGLKWMGWINTNTGQTTYAEEFRGRFAISLETSASTAFLTISNLKNEDSATYFCARLIYDGDYISSDFWGQGTTLTVSS VL: DIQMTQSPDSLSASVGETVTITCGASENIYGALNWYQRKQGKSPQLLIYGATNLADGMSSRFSGSRSGRQYSLKISSLHPDDVATYYCQNALSMPYTFGGGTNLETK", "values": [{"measurement": "stoichiometry N", "setting": "[3]", "result": 1}, {"measurement": "binding result", "setting": "[4]", "result": "binds"}]}
{"binder": "Fab6D12 (Fab, V domains shown, Chimeric Fab: mouse variable domains on human constant domains; also called Fab of Ab6D12; 3.6D12 Fab; source: E. coli strain 64B4, secreted into the periplasm, purified (protein G, SP Sepharose, Superdex 75)) VH: EVMLVESGGGLVRPGGSLKLSCTASGFTFSRCAMSWVRQTPEKRLEWVSAISRDSTYTYYSDSVKGRFTVSRDNAKNTLYLQMSSLRSEDTAMYYCARQIDDYYVDALDYWGQGTSVTVSS VL: DVQITQSPSYLAASPGETITINCRASKIISKYLAWYQEKPGKTIKLLIYSGFTLQSGIPSRFSGSGSGTDFTLTISSLEPEDFAMYYCQQHNEYPLTFGAGTKLEIK", "values": [{"measurement": "binding result", "setting": "[5]", "result": "binds"}]}
{"binder": "ESQEDIIRNIARHLAQVGDSMDRSI (Bid, BH3-only motif, residues 77-101; source: synthetic peptide (ABclonal, >95% purity))", "note": "[Bid BH3 peptide (25-mer, residues 77-101)]", "values": [{"measurement": "Kd", "setting": "Bcl-w", "result": 24.2, "unit": "nM"}, {"measurement": "Kd", "setting": "Bfl-1", "result": 0.31, "unit": "nM"}]}
{"binder": "ESQEDIIRNIIRHLAQVGDSMDRSI (source: synthetic peptide (ABclonal, >95% purity))", "note": "[Bid (A87I) peptide]", "values": [{"measurement": "Kd", "setting": "Bcl-w", "result": 65.2, "unit": "nM"}, {"measurement": "Kd", "setting": "Bfl-1", "result": 1430, "unit": "nM"}]}
{"binder": "Ab3B6 (antibody, V domains shown, mouse VH, as the variable part of the heavy chain of m2; mouse heavy chain constant region; mouse VL, as the variable part of the light chain of m2; mouse light chain constant region; Mouse anti-human ApoL1 antibody; also called 3.3B6) VH: QVQLQQSGAELARPGASVKLSCKASGYTFTSHWMQWLKQRPGQGLEWIGAIYPGDGDTKFTQKFKDKATLTADKSSTTAYMQLSSLASEDSAVYYCARENLYGYYFDYWGQGTTLTVSS VL: QAVVTQESALTTSPGETVTLTCRSSTGAVTSGNFANWVQEKPDHLFTGLIGGADNRAPGVPARFSGSLIGDKAALIITGAQTEDEAIYFCALWYSDHWVFGGGTKLTVL", "values": [{"measurement": "binding result", "setting": "ApoL3-Myc-Flag", "result": "binds"}, {"measurement": "binding result", "setting": "[1]", "result": "binds"}, {"measurement": "Kd", "setting": "[2]", "result": 1.56, "unit": "nM"}]}
{"binder": "DMRPEIWIIQELRRIGDEFNAYYAR (also called Bim (A149A) (as printed in the methods); source: synthetic peptide (ABclonal, >95% purity))", "note": "[Bim (A149I) peptide]", "values": [{"measurement": "Kd", "setting": "Bcl-w", "result": 23.1, "unit": "nM"}, {"measurement": "Kd", "setting": "Bfl-1", "result": 18.8, "unit": "nM"}]}
{"binder": "Ab7D6 (antibody, V domains shown, mouse VH, as the variable part of the heavy chain of m3; mouse heavy chain constant region; mouse VL, as the variable part of the light chain of m3; mouse light chain constant region; Mouse anti-human ApoL1 antibody; also called 3.7D6) VH: QIQLVQSGPDLKKPGETVKISCRTSGYAFTNYGVNWVKQAPGKGLKWMGWINTNTGQTTYAEEFRGRFAISLETSASTAFLTISNLKNEDSATYFCARLIYDGDYISSDFWGQGTTLTVSS VL: DIQMTQSPDSLSASVGETVTITCGASENIYGALNWYQRKQGKSPQLLIYGATNLADGMSSRFSGSRSGRQYSLKISSLHPDDVATYYCQNALSMPYTFGGGTNLETK", "values": [{"measurement": "Kd", "setting": "[2]", "result": 1.63, "unit": "nM"}]}
